Article doi:10.1101/2023.03.03.530962

Key:
[1] = biological target: PICK1 (protein interacting with C-kinase 1) (UniProt Q9EP80)
Chain of UniProt Q9EP80 (Q9EP80 whole entry): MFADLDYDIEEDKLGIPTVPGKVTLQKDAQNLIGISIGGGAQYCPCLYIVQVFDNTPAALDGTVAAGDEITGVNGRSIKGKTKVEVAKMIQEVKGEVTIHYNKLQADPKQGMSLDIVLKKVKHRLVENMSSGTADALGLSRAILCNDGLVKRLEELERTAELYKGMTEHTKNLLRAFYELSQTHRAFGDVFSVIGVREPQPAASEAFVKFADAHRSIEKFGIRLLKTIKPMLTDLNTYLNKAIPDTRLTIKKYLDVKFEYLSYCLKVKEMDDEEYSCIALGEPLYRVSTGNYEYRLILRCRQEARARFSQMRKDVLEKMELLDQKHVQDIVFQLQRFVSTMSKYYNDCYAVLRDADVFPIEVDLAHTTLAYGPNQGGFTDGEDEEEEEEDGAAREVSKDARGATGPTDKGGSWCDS

stoichiometry N (GCN4-GS (yeast)) | Ki [1] [nM] | Substance
2 | – | GCN4-GS (peptide)
– | 548 | GCN4(7P14P)-HWLKV (peptide)
– | 119 | GCN4-HWLKV (peptide)
